In patent publication US20230312724A1 (KADMON, published 2023):
Like-named read-outs stand apart in the source and are kept apart here.

Tests used:
[1] = molecular target: T1, IgC domain of human B7-H4-Fc (human); test: ELISA, coated hB7-H4 IgC domain
T1 construct: also called hB7-H4 IgC domain

[2] = molecular target: T2, mouse B7-H4 expressed on cells (mouse, UniProt Q7TSP5 25-257); test: flow cytometry, mB7-H4/CT26 cells
T2 construct: also called cellular mB7-H4; mB7-H4/CT26
T2 sequence: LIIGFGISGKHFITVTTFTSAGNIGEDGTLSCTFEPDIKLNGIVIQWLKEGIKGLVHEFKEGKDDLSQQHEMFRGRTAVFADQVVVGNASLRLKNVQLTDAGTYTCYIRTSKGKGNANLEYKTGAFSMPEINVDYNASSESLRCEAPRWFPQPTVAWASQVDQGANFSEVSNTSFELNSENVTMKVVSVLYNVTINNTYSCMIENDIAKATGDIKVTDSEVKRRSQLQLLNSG

[3] = molecular target: T3, IgV domain of human B7-H4-Fc (human); test: ELISA, coated hB7-H4 IgV domain
T3 construct: also called hB7-H4 IgV domain

[4] = molecular target: T4, IgV domain of mouse B7-H4-Fc (mouse; human); test: ELISA, coated mB7-H4 IgV domain
T4 construct: also called mB7-H4 IgV domain

[5] = molecular target: T5, hB7-H4 (soluble human B7-H4, construct not named) (human, UniProt Q7Z7D3 25-259, limits assumed); test: ELISA, hB7-H4
T5 construct: also called soluble hB7-H4
T5 sequence: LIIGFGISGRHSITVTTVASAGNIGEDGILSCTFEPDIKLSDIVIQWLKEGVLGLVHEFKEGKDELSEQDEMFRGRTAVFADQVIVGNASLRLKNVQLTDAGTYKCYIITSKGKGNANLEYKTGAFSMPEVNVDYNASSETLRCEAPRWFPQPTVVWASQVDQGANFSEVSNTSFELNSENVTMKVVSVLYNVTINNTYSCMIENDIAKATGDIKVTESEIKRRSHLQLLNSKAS
Protocol: (§1) About 1-2 μg/ml of human or mouse B7-H4-Fc (or his-tagged) was immobilized on ELISA plates (Immuno 2HB, Thermo scientific, cat #3455) at 4° C. overnight. After blocking the plates with 3% PBS+milk, serial diluted antibodies were added to the blocked plates and incubated at RT for 1-1.5 h. After washing the plates with PBS-T (0.05%), horse radish peroxidase (HRP)-conjugated antibody targeting the hFab was added to the plate. Signals were developed by adding 3,3′,5,5′-Tetramethylbenzidine (TMB (followed 1N of H₂SO₄ to stop the reaction. The OD at 450 nm was read by ELISA plate reader (Infinite M1000 from TECAN). GraphPad from Prism was used to plot OD450 vs. antibody concentration curve and to calculate the EC50 values.

[6] = molecular target: T6, mB7-H4 (soluble mouse B7-H4, construct not named) (mouse, UniProt Q7TSP5 25-257, limits assumed); test: ELISA, mB7-H4
T6 sequence: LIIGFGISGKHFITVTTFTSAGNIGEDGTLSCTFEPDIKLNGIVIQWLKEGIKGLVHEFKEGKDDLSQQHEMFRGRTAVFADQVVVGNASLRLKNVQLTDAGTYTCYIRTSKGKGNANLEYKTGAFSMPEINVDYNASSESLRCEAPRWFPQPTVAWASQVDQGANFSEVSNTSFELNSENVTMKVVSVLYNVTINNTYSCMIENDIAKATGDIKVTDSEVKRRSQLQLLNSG
Protocol: as §1

[7] = molecular target: T5, hB7-H4 (soluble human B7-H4, construct …); test: SPR (Biacore)
[8] = molecular target: T1, IgC domain of human B7-H4-Fc; test: ELISA, coated hB7-H4 IgC domain; remark: listed apart in the source
Protocol: ELISA experiments were performed to determine binding to hB7-H4-Fc (FIG. 5A), hB7-H4-his (FIG. 5B), mB7-H4-Fc domain (FIG. 5C), hB7-H4 IgV domain (FIG. 5D), and hB7-H4 IgC domain (FIG. 5E). Flow cytrometry experiments were performed to determine binding to CHO cells expressing hB7-H4 (FIG. 5F) or mB7-H4 (FIG. 5G). […] A cross-reactive IgV binding antibody and an IgC binding antibody were used as controls.
as §1

[9] = molecular target: T6, mB7-H4 (soluble mouse B7-H4, construct …); test: SPR (Biacore); values equal to Table 11
[10] = molecular target: T7, mouse B7-H4-Fc (mouse; human); test: ELISA, coated mB7-H4-Fc
T7 construct: also called mB7-H4-Fc; mB7-H4-hFc
Method in brief: (§2)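 EC50 values come from fitted OD450-versus-antibody-concentration curves. Antibody dilution series bound for 1-1.5 h at RT to plates coated overnight at 4° C with about 1-2 μg/ml human or mouse B7-H4-Fc or His-tagged protein, milk-blocked. Detection used HRP-conjugated anti-hFab with TMB substrate and an acid stop.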

[11] = molecular target: T8, human B7-H4 expressed on cells (human, UniProt Q7Z7D3 25-282); test: flow cytometry, SK-BR-3 cells
T8 construct: Transfected CHO cells or tumor cell lines that carry hB7-H4; also called cellular hB7-H4
T8 sequence: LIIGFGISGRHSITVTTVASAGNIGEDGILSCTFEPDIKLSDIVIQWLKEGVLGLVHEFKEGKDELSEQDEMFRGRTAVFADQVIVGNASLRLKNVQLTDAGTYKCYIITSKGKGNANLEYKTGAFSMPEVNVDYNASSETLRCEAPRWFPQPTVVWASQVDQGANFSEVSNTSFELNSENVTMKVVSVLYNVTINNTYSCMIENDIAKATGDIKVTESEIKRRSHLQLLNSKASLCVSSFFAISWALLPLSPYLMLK

[12] = molecular target: T9, mouse B7-H4-his (mouse, UniProt Q7TSP5 25-257); test: ELISA, coated mB7-H4-his
T9 construct: also called mB7-H4-his; mB7-H4-His; not shown: his tag
T9 sequence: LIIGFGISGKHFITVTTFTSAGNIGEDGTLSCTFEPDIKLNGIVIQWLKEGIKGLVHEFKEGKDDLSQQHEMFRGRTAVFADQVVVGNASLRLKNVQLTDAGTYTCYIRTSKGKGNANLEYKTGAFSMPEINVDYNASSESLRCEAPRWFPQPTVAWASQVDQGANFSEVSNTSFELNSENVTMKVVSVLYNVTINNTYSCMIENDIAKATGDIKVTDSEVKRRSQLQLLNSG
Protocol: as §1

[13] = molecular target: T10, IgC domain of mouse B7-H4-Fc (mouse; human); test: ELISA, coated mB7-H4 IgC domain (title on the sheet: IgC domain of mB7H4)
T10 construct: also called mB7-H4 IgC domain
Protocol: as §1

[14] = molecular target: T1, IgC domain of human B7-H4-Fc; test: ELISA, coated hB7-H4 IgC domain (title on the sheet: IgC domain of hB7H4)
Protocol: as §1

[15] = molecular target: T5, hB7-H4 (soluble human B7-H4, construct …); test: SPR (Biacore); remark: listed apart in the source
Method in brief: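 Kinetic constants came from a 1:1 Langmuir fit of binding at 25 °C in HBS-EP, pH 7.4. Analyte (100 nM to 0.1 nM) flowed for 180 s, then dissociated for 1000 or 1200 s, over amine-coupled human B7-H4-Fc, human B7-H4-his or mouse B7-H4-Fc surfaces at 50-100 RU.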

[16] = molecular target: T4, IgV domain of mouse B7-H4-Fc; test: ELISA, coated mB7-H4 IgV domain; remark: listed apart in the source
Protocol: as §1

[17] = molecular target: T7, mouse B7-H4-Fc; test: ELISA, coated mB7-H4-Fc (title on the sheet: Binding to mB7-H7-Fc)
Protocol: as §1

[18] = molecular target: T6, mB7-H4 (soluble mouse B7-H4, construct …); test: ELISA and SPR (Biacore)
Protocol: as §1
(§3) Surface plasmon resonance experiments were performed using a Biacore T200 instrument equipped with CM5 sensor chips. The system was equilibrated in running buffer HBS-EP pH 7.4. The ligands were immobilized using amine-coupling chemistry. The surfaces of flow cells one through four were activated for 5 min using an amine coupling kit at a flow rate of […]. The ligands (human B7-H4-Fc, human B7-H4-hism and mouse B7-H4-Fc; at a concentration of 5 μg/ml in 10 mM sodium acetate, pH 5.0) were immobilized at a density of 50-100 RU on flow cell 2, 3, 4 respectively. Flow cell 1 was left blank to serve as a reference surface. All flow cell surfaces were blocked with a 5 min injection of 1 M ethanolamine, pH 8.0. To collect kinetic binding data, the respective analyte (diluted in 1×HBS-EP buffer, pH 7.4) was injected over the four flow cells at concentrations of 100 nM to 0.1 nM at a flow rate of […] and at a temperature of 25° C. The protein complex was allowed to associate and dissociate for 180 seconds and 1000 or 1200 seconds, respectively. The surfaces were regenerated with a 30 second injection of 1.5 M NaCl/0.05 M NaOH. The data were fit to a simple 1:1 interaction model using the Langmuir fit option available within the Biaevaluaton software

[19] = molecular target: T2, mouse B7-H4 expressed on cells; test: flow cytometry, CHO cells expressing mB7-H4
[20] = molecular target: T5, hB7-H4 (soluble human B7-H4, construct …); test: ELISA, hB7-H4; remark: listed apart in the source
Method in brief: as §2

[21] = molecular target: T8, human B7-H4 expressed on cells; test: flow cytometry, SK-BR-3 cells; remark: listed apart in the source
Method in brief: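 Antibody or fusion protein dilution series applied to 1×10⁶ cells/ml in ice-cold FACS buffer, 1 h at 4 °C; cells washed thrice, labelled 30 min at 4 °C in darkness with 1:200 secondary antibody, washed, resuspended in PBS and analysed by flow cytometry.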

[22] = molecular target: T7, mouse B7-H4-Fc; test: ELISA, coated mB7-H4-Fc; remark: listed apart in the source
Protocol: (§4) ELISA experiments were performed to determine binding to hB7-H4-Fc (FIG. 3A), hB7-H4-his (FIG. 3B), mB7-H4-Fc (FIG. 3C), and hB7-H4 IgV domain (FIG. 3D). Flow cytometry experiments were performed to determine binding to CHO cells expressing hB7-H4 (FIG. 3E) or mB7-H4 (FIG. 3F).
as §1

[23] = molecular target: T11, human B7-H4-his (human, UniProt Q7Z7D3 25-259); test: SPR (Biacore)
T11 construct: also called hB7-H4-his; hB7-H4 his; not shown: his tag
T11 sequence: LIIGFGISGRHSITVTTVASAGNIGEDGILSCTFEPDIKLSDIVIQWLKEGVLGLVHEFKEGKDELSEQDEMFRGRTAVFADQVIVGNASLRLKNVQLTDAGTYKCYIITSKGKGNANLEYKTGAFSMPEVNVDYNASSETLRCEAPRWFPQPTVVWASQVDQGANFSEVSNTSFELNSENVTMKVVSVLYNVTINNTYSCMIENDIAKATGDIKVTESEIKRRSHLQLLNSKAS
Protocol: as §3
(§5) The kinetics for binding of the different antibodies to their targets were examined using Biacore analysis.

[24] = molecular target: T12, human B7-H4-Fc (human); test: SPR (Biacore)
T12 construct: also called hB7-H4-Fc; hB7-H4 Fc
Protocol: as §3, §5

[25] = molecular target: T2, mouse B7-H4 expressed on cells; test: flow cytometry, CHO cells expressing mB7-H4; remark: listed apart in the source
Protocol: as §4
Cells were harvested, washed once, and then re-suspended to the concentration of 1×10⁶ cells/ml in ice cold FACS Buffer. 25 μl of cell suspension was added to each well of a 96-well round-bottom microliter plate. Serially diluted antibodies or fusion proteins were added to each well and incubated for 1 hour at 4° C. Cells were washed three times by centrifugation at 1500 rpm for 5 minutes, and then stained with secondary antibody (1:200 dilution) for 30 min at 4° C. in the dark. Cells were washed once, re-suspended in 100 μl PBS buffer and then analyzed using Guava Flow Cytometry EasyCyte system.

T4 sequence (chain, as listed by the source): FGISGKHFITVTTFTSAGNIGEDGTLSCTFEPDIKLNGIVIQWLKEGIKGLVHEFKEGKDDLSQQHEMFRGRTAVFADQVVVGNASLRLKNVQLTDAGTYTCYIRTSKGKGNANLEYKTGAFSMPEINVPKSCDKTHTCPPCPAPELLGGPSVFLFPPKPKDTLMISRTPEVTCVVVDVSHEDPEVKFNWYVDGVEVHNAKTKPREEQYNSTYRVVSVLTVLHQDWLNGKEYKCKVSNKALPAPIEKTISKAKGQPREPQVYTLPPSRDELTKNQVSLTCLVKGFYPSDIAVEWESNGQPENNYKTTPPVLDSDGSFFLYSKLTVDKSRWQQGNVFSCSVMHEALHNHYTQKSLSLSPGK
T1 sequence (chain, as listed by the source): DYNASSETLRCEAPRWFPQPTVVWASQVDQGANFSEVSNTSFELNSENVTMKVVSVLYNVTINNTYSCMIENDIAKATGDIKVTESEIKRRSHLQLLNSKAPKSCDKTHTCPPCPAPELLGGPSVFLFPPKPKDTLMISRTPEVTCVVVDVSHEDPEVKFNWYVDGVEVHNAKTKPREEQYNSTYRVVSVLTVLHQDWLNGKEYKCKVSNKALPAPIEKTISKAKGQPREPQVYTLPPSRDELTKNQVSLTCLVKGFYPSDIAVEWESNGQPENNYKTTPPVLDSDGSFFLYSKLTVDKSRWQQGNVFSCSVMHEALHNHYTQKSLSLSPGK
T7 sequence (chain, as listed by the source): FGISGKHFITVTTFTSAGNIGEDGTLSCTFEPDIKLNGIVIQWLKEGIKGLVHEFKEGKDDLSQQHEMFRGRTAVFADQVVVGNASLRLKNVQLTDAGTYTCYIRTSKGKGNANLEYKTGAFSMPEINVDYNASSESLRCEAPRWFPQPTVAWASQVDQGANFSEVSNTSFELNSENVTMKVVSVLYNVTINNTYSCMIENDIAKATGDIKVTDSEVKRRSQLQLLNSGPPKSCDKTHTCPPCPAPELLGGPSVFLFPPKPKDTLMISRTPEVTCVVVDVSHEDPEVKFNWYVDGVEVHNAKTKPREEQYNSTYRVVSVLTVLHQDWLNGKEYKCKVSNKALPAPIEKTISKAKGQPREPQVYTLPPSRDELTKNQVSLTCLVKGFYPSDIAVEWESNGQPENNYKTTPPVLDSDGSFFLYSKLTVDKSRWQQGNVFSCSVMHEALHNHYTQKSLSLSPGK
T10 sequence (chain, as listed by the source): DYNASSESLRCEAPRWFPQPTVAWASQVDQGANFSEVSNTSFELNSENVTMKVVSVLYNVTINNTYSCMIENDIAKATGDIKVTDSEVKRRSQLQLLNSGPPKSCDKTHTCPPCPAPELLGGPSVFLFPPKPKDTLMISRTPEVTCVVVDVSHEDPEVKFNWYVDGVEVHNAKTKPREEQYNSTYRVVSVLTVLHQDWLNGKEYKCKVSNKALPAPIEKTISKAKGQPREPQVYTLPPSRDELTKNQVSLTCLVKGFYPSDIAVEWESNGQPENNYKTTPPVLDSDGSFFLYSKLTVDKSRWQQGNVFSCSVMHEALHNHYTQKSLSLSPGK
T12 sequence (chain, as listed by the source): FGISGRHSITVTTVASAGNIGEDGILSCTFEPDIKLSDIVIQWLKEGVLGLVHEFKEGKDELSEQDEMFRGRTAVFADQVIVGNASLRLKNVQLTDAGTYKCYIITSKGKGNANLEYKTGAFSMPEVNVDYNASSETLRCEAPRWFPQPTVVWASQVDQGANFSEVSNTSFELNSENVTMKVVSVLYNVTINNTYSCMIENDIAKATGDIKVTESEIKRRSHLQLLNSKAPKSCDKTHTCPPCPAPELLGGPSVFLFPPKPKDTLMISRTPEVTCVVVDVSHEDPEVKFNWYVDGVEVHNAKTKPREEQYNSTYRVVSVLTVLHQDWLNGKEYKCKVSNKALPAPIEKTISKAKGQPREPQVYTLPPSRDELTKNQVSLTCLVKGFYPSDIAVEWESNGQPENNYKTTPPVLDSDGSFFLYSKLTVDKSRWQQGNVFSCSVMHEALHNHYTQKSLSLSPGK
T3 sequence (chain, as listed by the source): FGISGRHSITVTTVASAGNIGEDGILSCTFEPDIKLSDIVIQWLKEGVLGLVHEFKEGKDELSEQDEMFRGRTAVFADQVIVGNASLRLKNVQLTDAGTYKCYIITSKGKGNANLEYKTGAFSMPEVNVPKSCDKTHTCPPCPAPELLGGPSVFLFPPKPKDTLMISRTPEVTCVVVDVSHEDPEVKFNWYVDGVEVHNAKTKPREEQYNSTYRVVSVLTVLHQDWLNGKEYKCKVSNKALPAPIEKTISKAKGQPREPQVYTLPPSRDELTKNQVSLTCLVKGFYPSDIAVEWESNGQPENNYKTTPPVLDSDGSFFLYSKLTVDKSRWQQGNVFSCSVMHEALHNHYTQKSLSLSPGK

B1: Control antibody 2 (antibody 6H3 described in U.S. Pat. No. 9,574,000) (antibody, V domains shown)
VH: EVQLQQSGPVLVKPGTSVKMSCKASGYTFTDYYMNWVKQSHGKSLEWIGVINPYNGDTTYNQKFKGKATLTVDKSSSTAYMEVNSLTFEDSAVYYCARYPESTYWGQGTLVTVSA
VL: DVVMTQTPLSLPVSLGDQASISCRSSQSLVHINGNTYLHWYLQKPGQSPKVLIYKVSNRFSGVPDRFSGSGSGTDFTLKISRVEAEDLGVYFCSQSTHVPLTFGAGTKLELK
notes: also called (+) control Ab2; Ab2
- EC50 (read off the curve) [1]: ~0.2 nM
- EC50 [2]: 18.4 nM
- binding result [3]: no binding (tested: log 1 nM (10 nM))
- binding result [4]: no binding (tested: log 1 nM (10 nM))
- EC50 [5]: 0.222 nM
- EC50 [6]: 0.289 nM
- Kd [7]: 0.626 nM
- EC50 (read off the curve) [8]: ~0.01 µg/mL
- Kd [9]: 0.626 nM
- binding result [10]: binds
- EC50 [11]: 3.37 nM

B2: 1D3/45A2 (antibody, human IgG1, V domains shown)
VH: EVQLLESGGGLVQPGGSLRLSCAASGFTFNTHAMHWVRQAPGKGLEWVSAISGSGGSTYYADSVKGRFTISRDISKNTLYLQMNSLRAEDTAVYYCARLLGRFGEYGMDVWGQGTTVTVSS
VL: DIQMTQSPSSLSASVGDRVTITCRASQNIYTWLAWYQQKPGKAPKLLIYDATNLPTGVPSRFSGSGSGTDFTLTISSLQPEDFATYYCQQSYSTRWTFGGGTKVEIK
notes: 1D3 VH with 45A2 VL
- binding result [12]: no binding (tested: axis value -8 (labelled log nM))
- binding result [13]: no binding (tested: axis value -8 (labelled log nM))
- binding result [14]: no binding (tested: axis value -8 (labelled log nM))
- Kd [15]: 0.317 nM
- binding result [16]: no binding (tested: axis value -8 (labelled log nM))
- binding result [17]: no binding (tested: axis value -8 (log scale labelled nM))
- binding result [18]: no binding
- binding result [19]: no binding (tested: log 2 nM (100 nM))
- EC50 [20]: 0.041 nM
- EC50 [21]: 52.1 nM

B3: 3F2/3F2 (antibody, human IgG1, V domains shown)
VH: QVQLVQSGAEVKKPGASVKVSCKASGYTFTAQYMYWVRQAPGQGLEWMGRINPTSGNTVYAQKLQGRVTMTRDTSTSTVYMELSSLRSEDTAVYYCARGINWFDPWGQGTLVTVSS
VL: not shown
- binding result [12]: no binding (tested: axis value -8 (labelled log nM))
- binding result [22]: no binding (tested: axis value -8 (log scale labelled nM))
- binding result [13]: no binding (tested: axis value -8 (labelled log nM))
- Kd [15]: 0.0819 nM
- binding result [16]: no binding (tested: axis value -8 (labelled log nM))
- binding result [18]: no binding
- Kd [23]: 0.0849 nM
- Kd [24]: 0.0951 nM
- EC50 [20]: 0.048 nM
- binding result [25]: no binding (tested: axis value -7 (log scale labelled nM))
- EC50 [21]: 0.84 nM
